# US6689574B1, “Assays for nuclear receptor agonists and antagonists using fluorescence resonance energy transfer” (Merck & Co., Inc., priority 1997, dated 2004)
# B1: Eu3+K-labeled hCBP1-113 (NH2-terminal amino acids 1-113 of human CBP, cleaved from GST with thrombin, directly labeled with europium cryptate) (other)
# chain: MAENLLDGPPNPKRAKLSSPGFSANDSTDFGSLFDLENDLPDELIPNGGELGLLNSGNLVPDAASKHKQLSELLRGGSGSSINPGIGNVSASSPVQQGLGGQAQGQPNSANMA
# modifications: directly labeled with europium cryptate (Eu3+K); labeled residues not stated
# notes: Made as a GST fusion in E. coli (pGEX) and cleaved with thrombin; The preparation gave two bands, 12 kd (expected) and 10 kd (likely a premature termination product)
# B2: GST-hCBP1-113 (glutathione S-transferase fused to amino acids 1-113 of human CBP) (other)
# chain: B1 chain
# notes: Uncleaved fusion, detected in the assay by Eu3+K-labeled goat anti-GST antibody (Pharmacia 27-4577-01); also called GST-CBP fusion protein; not shown: glutathione S-transferase (GST) of the pGEX expression vector (Pharmacia Biotech); pGEX linker with thrombin site between GST and CBP
# B3: GST-hPPARγ1LBD (glutathione S-transferase fused to amino acids 176-478 of human PPARγ1) (receptor)
# chain: SHNAIRFGRIAQAEKEKLLAEISSDIDQLNPESADLRQALAKHLYDSYIKSFPLTKAKARAILTGKTTDKSPFVIYDMNSLMMGEDKIKFKHITPLQEQSKEVAIRIFQGCQFRSVEAVQEITEYAKSIPGFVNLDLNDQVTLLKYGVHEIIYTMLASLMNKDGVLISEGQGFMTREFLKSLRKPFGDFMEPKFEFAVKFNALELDDSDLAIFIAVIILSGDRPGLLNVKPIEDIQDNLLQALELQLKLNHPESSQLFAKLLQKMTDLRQIVTEHVQLLQVIKKTETDMSLHPLLQEIYKDLY
# notes: Uncleaved fusion, detected in the assay by Eu3+K-labeled anti-GST antibody; not shown: glutathione S-transferase (GST) of the pGEX-KG vector (Guan & Dixon 1991); pGEX-KG linker between GST and the LBD
# B4: biotin-labeled hPPARγ1LBD (human PPARγ1 ligand binding domain, amino acids 176-478, cleaved free of GST) (receptor)
# chain: B3 chain
# modifications: biotinylated with Sulfo-NHS-LC-Biotin to a biotin:hPPARγ1LBD ratio of 3:1; sites not stated
# notes: Made from pGEX-KG as a GST fusion and cleaved free of GST; In the assay it carried streptavidin-labeled XL665 through the biotin; also called biotin-hPPARγ1LBD
# Experiments:
# PPARγ1LBD = PPARγ1LBD (Homo sapiens, UniProt P37231); test: Binding constant for hCBP/PPARγ1LBD interaction by FRET competition with non-biotinylated hCBP1-453 (FIG. 6); design: amino acids 176-478 of PPARγ1; made in house; host or cells: E. coli (DH5α); details: saturating PPARγ agonist (10 μM BRL49653); derived from FIG. 6; read-out: Kd for the interaction between hCBP1-453 and PPARγ1LBD
# PPARγ1LBD, sequence (P37231 204-505): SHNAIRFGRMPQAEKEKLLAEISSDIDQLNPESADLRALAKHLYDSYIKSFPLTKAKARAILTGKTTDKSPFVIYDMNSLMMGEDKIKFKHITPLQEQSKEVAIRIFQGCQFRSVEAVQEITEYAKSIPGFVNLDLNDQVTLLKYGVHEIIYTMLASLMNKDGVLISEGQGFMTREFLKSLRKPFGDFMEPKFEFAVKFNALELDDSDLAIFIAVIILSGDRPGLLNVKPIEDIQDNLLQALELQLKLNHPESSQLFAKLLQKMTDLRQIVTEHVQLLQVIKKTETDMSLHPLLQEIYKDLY
# PPARγ1LBD, sequence (Q92793 1-453 partner): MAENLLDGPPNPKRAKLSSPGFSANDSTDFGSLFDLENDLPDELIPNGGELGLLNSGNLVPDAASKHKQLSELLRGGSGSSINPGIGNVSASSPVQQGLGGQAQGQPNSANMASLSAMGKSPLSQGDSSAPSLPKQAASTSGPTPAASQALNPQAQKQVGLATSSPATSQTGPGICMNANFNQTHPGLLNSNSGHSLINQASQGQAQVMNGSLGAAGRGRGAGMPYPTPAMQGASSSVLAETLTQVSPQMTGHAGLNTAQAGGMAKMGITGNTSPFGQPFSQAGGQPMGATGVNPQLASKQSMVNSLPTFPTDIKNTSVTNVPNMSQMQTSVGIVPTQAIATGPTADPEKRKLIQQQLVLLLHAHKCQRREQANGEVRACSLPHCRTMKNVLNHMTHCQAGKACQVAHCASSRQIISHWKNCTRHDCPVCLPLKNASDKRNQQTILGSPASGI
# Protocol: The above-described assay can also be used to characterize the interaction between nuclear receptors with co-activators as, e.g., by determining the binding constant for that interaction. […] Saturating amounts of PPARγ agonist (10 μM BRL49653) were used. Increasing concentrations of non-biotinylated hCBP1-453 were used to titrate away biotin-hCBP-PPARγ1LBD complex and decrease the fluorescence energy transfer. A Kd of 300 nM for the interaction between hCBP1-453 and PPARγ1LBD can be derived from the results illustrated in FIG. 6 and this Kd (300 nM) is a measurement of the affinity between CBP and PPARγ.
# [1] = target: B4; test: FRET, Eu3+K-hCBP1-113 (100 nM) + biotin-hPPARγ1LBD (100 nM) + SA-XL665 (100 nM), 1 µM AD5075, PBS
# [2] = target: B4; test: FRET, same format without agonist (vehicle), HEPES + 0.05% NP40; background control
# [3] = target: B4; test: FRET, Eu3+K-hCBP1-113 + biotin-hPPARγ1LBD + SA-XL665, 1 µM AD5075, HEPES + 0.05% NP40
# [4] = target: B4; test: FRET, same format without agonist (0.1% DMSO vehicle), PBS; background control
# [5] = target: B4; test: FRET, GST-hCBP1-113 + Eu3+K anti-GST antibody + biotin-hPPARγ1LBD (100 nM) + SA-XL665 (500 nM), 1 µM AD5075, HEPES + 0.05% NP40
# From the text: (§1) In order to get an even better signal-noise ratio, the above-described format was modified slightly for experiment 3.
# [6] = target: B4; test: FRET, experiment 3 format, HEPES + 0.05% NP40
# From the text: as §1
# [7] = target: non-biotinylated hCBP1-453 (NH2-terminal amino acids 1-453 of human CBP, cleaved from GST) (human, UniProt Q92793 1-453); test: FRET competition: increasing non-biotinylated hCBP1-453 displaces biotin-hCBP from PPARγ1LBD, saturating agonist (10 µM BRL49653)
# Protocol: The above-described assay can also be used to characterize the interaction between nuclear receptors with co-activators as, e.g., by determining the binding constant for that interaction. […] Saturating amounts of PPARγ agonist (10 μM BRL49653) were used.
# [8] = target: B1; test: FRET, Eu3+K-hCBP1-113 + biotin-hPPARγ1LBD + SA-XL665, PBS
molecule,measurement,setting,value
"hCBP1-453: NH2-terminal 1-453 amino acids of human CBP, expressed in E. coli as GST fusion and cleaved",Kd,PPARγ1LBD,300 nM
B1,Emission ratio with AD5075,[1],"1130 665 nm/620 nm ratio x 10,000"
same,Emission ratio with vehicle,[2],"617 665 nm/620 nm ratio x 10,000"
same,Emission ratio with AD5075,[3],"967 665 nm/620 nm ratio x 10,000"
same,Emission ratio with vehicle,[4],"1070 665 nm/620 nm ratio x 10,000"
B2,Emission ratio with AD5075,[5],"1080 665 nm/620 nm ratio x 10,000"
same,signal-noise ratio (with AD5075 against without),[6],2 fold
same,Emission ratio with vehicle,[2],"536 665 nm/620 nm ratio x 10,000"
B3,Kd,[7],300 nM
B4,binding result,[8],binds
